Assay [1] deals with BSA-glutathione (bovine) (UniProt P02769). The experiment in a line: ELISA, culture supernatant on BSA-GSH plates without mercury. For orientation: In an ELISA, binding on a coated surface is turned into a signal by an enzyme label.
For assay [2] the target is unchanged. The experiment in a line: ELISA, culture fluid on glutathione-BSA (column Glutathione).
Assay [3] has the same target. The experiment in a line: ELISA, subclone culture fluid on BSA-glutathione, average of triplicates.

The results in this text go back to patent US5972656.

Changes are numbered by the printed parent chain.

B1: monoclonal antibody 2D5 (antibody, V domains shown)
VH: SGGGSVKPGGSLKLSCAASGFTFSSCAMSWVRQTPEKRLEWVATISSGGSYTYYPDSVKGRFTIFRHNAENTLYLQMSSLRSEDTAIYYCVRQDGYYGNYVWFAYWGQGTLVTVSA
VL: ELVMTQSPASLSASVGETVTITCRASENIYGYLAWYQQKQGKSPLPRVYNAKTLAEDVSSRVSGSGSGTQFSLKIRTSQPEDFGTYYCQHHYGTPYTFGGGTKLEIK
Regarding B1, the absorbance at 405 nm (absorbance at 405 nm) in assay [1] was determined as 0.09.

B2: monoclonal antibody 5B6 (antibody, V domains shown)
VH: B1 VH with C26R, F65S, L75F, D94T, V101E, T110L
VL: DIQMTQSPSSLSASLGERVTLTCRASQDIGSSLNWLQLKPDGTIKRLIYATSGLDSGVPKRFSGSRSGSDYSLTINSPESEDFVDYYCLQCSNSPYTFGGGTKLEIN
In assay [1], B2 gave an absorbance at 405 nm (absorbance at 405 nm) of 0.019.

B3: monoclonal antibody 4A10 (antibody, V domains shown)
VH: EVQLQQSGPELVKPGALVKISCKASGYTFTSYDINWVKQRPGQGLEWIGWIYPGDGSTKYNEKFKGKATLTADKSSSTAYMQLSSLTSENSAVYFCARCGYAMDYWGQGTSVTVSS
VL: DVLMTQTPLSLPVSLGDQASISCRSSQSIVHSNGNTYLEWYLQKPGQSPKLLIYKVSNRFSGVPDRFSGSGSGTDFTLKISRAEAEDLGVYYCFQGSHVRYTFGGGTKLEIK
Turning to B3, the values for the absorbance at 405 nm (absorbance at 405 nm) in assay [2], in assay [1] and in assay [3] were 0.4, 0.078 and 0.322, respectively.

B4: monoclonal antibody 1C11 (antibody, V domains shown)
VH: SGAELVKPGASVKLSCKTSGYTVTSYWMGWVKQRPGQGLEWIGNIYPDSGTTNYNEKFKNKATLTVDTFSSTVYMQLSSLTSEDSAVYYCARGVYSYYSYDVYAMDYWGQGTSVTVSS
VL: DLVLTQSPPSLAVSLGQRSTISCRSSQSIVHSNGNTYLHWYQQNPGQPPKLLIKYASNLESGVPARFSGSGSGTDFTLNIHPAEVEDSATYFCQHSWEIPPTFGGGTKLEIK
B4: in assay [1], the absorbance at 405 nm (absorbance at 405 nm) turned out to be 0.094.

B5: monoclonal antibody 5G4 (antibody, V domains shown)
VH: SVPARLKPGASVRISCKASAYSFTGYFMNWMKQSHGKTLEWIGRINPYNGDTFYNQKFKSKATVTVDKSSSTAHMELLSLTSEDSAVYYCGTQPLDYWGQGTTLTVSS
VL: B2 VL with N107K
With B5, in assay [1], the absorbance at 405 nm (absorbance at 405 nm) came out at 0.028.

B6: monoclonal antibody 23F8 (antibody, V domains shown)
VH: SGPELVKTGASVKISCKASGYSFTGYYMHWVKQSHGKSLEWIGYISCYNGATSYNQKFKGKATFTVDTSSSTAYMQFNSLTSEDSAVYYCARSGIYDVTTTLTTGAKAPLSQSP
VL: DIQMTQSPSSLSASLGGKVTITCKASQDINKYIAWYQHKPGKGPRLLIHYTSTLQPGIPSRFSGSGSGRDYSFSISNPEPEDIATYYCLQYDNSLFTFGSGTKLEIK
Regarding B6, the absorbance at 405 nm (absorbance at 405 nm) in assay [1] amounted to 0.168.
